Measured values: patent US20230218637A1, “COMPOSITIONS AND METHODS FOR DIAGNOSING, PREVENTING, AND TREATING AMYOTROPHIC LATERAL SCLEROSIS IN PATIENTS WITH HYPOFUNCTIONAL ANTI-TRYPSIN ACTIVITY” (Motor Life Sciences, LLC, priority 2020, published 2023)

Assays:
[1] = test system: mutant SOD mice (SOD1G93A); test: Ursolic acid treatment of ALS mouse model (grip test, rotarod); format: in vivo; conditions: ursolic acid 200 mg/kg daily over eight weeks
Procedure: In ALS mouse models, like mutant SOD mice (SOD1G93A)), ALS is diagnosed based on hanging wire grip test (where the latency of falling is measured in seconds), grip strength analysis, rotarod time trial test, where a decrease in time balanced on the rod correlates to disease positive mice. Weight is measured to determine hypotrophy of muscle mass over time. Low levels of serum serpinA1 proteins levels, serum protease inhibitor function, serum trypsin protein levels, and serum functional trypsin level correlates with ALS. Once the mice have been diagnosed with ALS, the mice are given daily treatments of ursolic acid (200 mg/kg) over the course of eight weeks. Levels of serum serpinA1 proteins, serum protease inhibitor function, serum trypsin protein, and serum functional trypsin are assessed over time monitoring for an increases. Grip test and rotarod times are assessed over time as a correlation for delay in disease progression.

[2] = biological target: T1, alpha1-protease inhibitor (Homo sapiens, UniProt P01009); conditions: cited from earlier work
T1 construct: a human protein has been isolated from pooled human serum samples and lyophilized; tissue Baxter / Takeda (Aralast NP); host or cells: pooled human serum / plasma
T1 sequence (P01009 25-418): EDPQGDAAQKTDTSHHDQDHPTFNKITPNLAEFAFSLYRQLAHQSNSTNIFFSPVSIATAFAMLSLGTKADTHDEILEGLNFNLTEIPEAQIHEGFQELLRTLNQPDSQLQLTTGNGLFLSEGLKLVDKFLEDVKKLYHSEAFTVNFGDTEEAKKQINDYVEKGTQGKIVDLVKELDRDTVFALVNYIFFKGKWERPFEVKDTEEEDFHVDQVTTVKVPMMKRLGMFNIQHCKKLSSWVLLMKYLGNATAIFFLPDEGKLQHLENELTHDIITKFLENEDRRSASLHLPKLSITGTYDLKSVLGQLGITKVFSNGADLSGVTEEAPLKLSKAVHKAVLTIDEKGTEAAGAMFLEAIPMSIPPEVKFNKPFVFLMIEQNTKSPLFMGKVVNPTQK

alpha-1 anti-trypsin = conditions: cited from earlier work; for augmenting blood and lung alpha-1 anti-trypsin levels compared with Prolastin / safety compared with Prolastin: basis of approval

With `C[C@H]1[C@H](C)CC[C@]2(C(=O)O)CC[C@]3(C)C(=CC[C@@H]4[C@@]5(C)CC[C@H](O)C(C)(C)[C@@H]5CC[C@]43C)[C@H]12` [ursolic acid] the “performance (grip test, rotarod) versus non-treatment group” value [1] was “outperform the non-treatment group”.
In the case of “Aralast NP: sterile, lyophilized preparation of human alpha-1 antitrypsin protein derived from large pools of human plasma”, the specific activity [2] is listed as 0.55 mg active alpha1-protease inhibitor/mg of total protein, the “augmenting blood and lung alpha-1 anti-trypsin levels compared with Prolastin” value (alpha-1 anti-trypsin) is listed as “comparable to Prolastin” and the “safety compared with Prolastin” value (alpha-1 anti-trypsin) is listed as “comparable to Prolastin”.
For “Glassia: FDA approved alpha-1 antitrypsin deficiency drug from Kamada Ltd.”, the “augmenting blood and lung alpha-1 anti-trypsin levels compared with Prolastin” value (alpha-1 anti-trypsin) is listed as “comparable to Prolastin” and the “safety compared with Prolastin” value (alpha-1 anti-trypsin) is listed as “comparable to Prolastin”.
For “Prolastin: alpha-1 antitrypsin augmentation therapy product from Grifols, marketed since 1988”, the safety record (alpha-1 anti-trypsin; marketed since 1988) is given as “excellent safety record”.
For “Zemaira: FDA approved alpha-1 antitrypsin deficiency drug from CSL Behring”, the “augmenting blood and lung alpha-1 anti-trypsin levels compared with Prolastin” value (alpha-1 anti-trypsin) is given as “comparable to Prolastin” and the “safety compared with Prolastin” value (alpha-1 anti-trypsin) is given as “comparable to Prolastin”.
